“Also recorded” adds a separate entry of the source.

Assay type in all cases: in vivo, C57BL/6 male mice
Assay [1] relates to testosterone, dihydrotestosterone, and estradiol. Kind of assay: Second experiment: hormone content in serum and skin tissue by ELISA. To be noted: compared with the model group. Here is the method: (§1) Experimental animals: C57BL/6 male mice, 6-7 weeks old, weighing (20±2) g, were provided by Beijing Vital River Laboratory Animal Technology Co. Ltd., with the animal license number of SCXK (Beijing) 2021-0006. They were kept in a 12 h light/12 h dark environment, with free access to food and water. The mice were divided into normal control group (normal group, NC), model group (Model), experimental group C (rh-CRT-2, with a concentration of 0.35 mg/ml) including an injection group and an external application group, experimental group D (rh-CRT-3, with a concentration of 0.21 mg/ml) including an injection group and external application group, and positive control-minoxidil group (Minoxidil). The proteins were stored in a −70° C. refrigerator and diluted with physiological saline when used. There were 6 mice in each group.
(§2) Modeling and drug administration: First, the hair loss model was established. One day before the modeling, the hair in the center of the back of the experimental animal was removed with a skin preparation knife, and the prepared skin area was depilated with a depilatory cream. After 24 hours of depilation, the normal control group was given 75% ethanol, and other groups were injected with testosterone solution (5 mg/mL) prepared with 75% ethanol, 0.01 mL/mouse. Two hours later, the injection groups of experimental group C and experimental group D were injected on the back, 0.15 mL/mouse, once a day, for 17 consecutive days; the external application groups of experimental group C and experimental group D were applied on the back, 0.15 mL/mouse, once a day, for 17 consecutive days. The normal control group and the model group were externally applied with physiological saline, once a day, 0.15 mL/mouse, for 17 consecutive days. During the drug administration process, except for the normal control group, all other groups were injected with the modeling agent (testosterone), and administrated with drugs after 2 hours. […] After the experiment, the mouse skin was pathologically sectioned as follows: The skin pathological tissue was fixed in 4% paraformaldehyde, trimmed, dehydrated and transparent, and then embedded. The slices were cut with a thickness of 6 μm using a paraffin slicer, and further dewaxed, stained, dehydrated, transparent and sealed. The hair follicles in different areas were observed under an optical microscope, and the number of hair follicles was statistically analyzed.
Hormone content in serum and skin tissue: At the end of the experiment, blood was collected from the mice's orbits, kept at room temperature for 30 min, centrifuged at 5,000 r/min for 10 min, and the serum was removed. At the end of the experiment, skin tissue was collected and stored in a −80° C. refrigerator. During the experiment, the skin tissue was homogenized, and the changes in testosterone, dihydrotestosterone, and estradiol of the serum and skin tissue in each group were detected by enzyme-linked immunosorbent assay (ELISA).
(§3) Statistical analysis: All data were processed using SPSS 17.0 software. One-way ANOVA was used for comparisons among multiple groups. Data were expressed as mean±standard deviation (x±s). P<0.05 was considered statistically significant, and P>0.05 was not considered statistically significant.

For assay [2], the system named is androgenic alopecia model. Kind of assay: First experiment: testosterone-induced androgenic alopecia model, hair observed by dermatoscope and scanning electron microscopy. Here is the method: Experimental animals: C57BL/6 male mice, 6-7 weeks old, weighing (20±2) g, were provided by Beijing Vital River Laboratory Animal Technology Co. Ltd., with the animal license number of SCXK (Beijing) 2021-0006. They were kept in a 12 h light/12 h dark environment, with free access to food and water. The mice were divided into normal NC group (NC), model group (Model), positive control-minoxidil group (Minoxidil), positive control-finasteride group (Finasteride), experimental group A and experimental group B. The proteins were stored in a −70° C. refrigerator and diluted with physiological saline when used. Experimental group A used rh-CRT-1, with a concentration of 0.21 mg/ml. Experimental group B used rh-CRT-2, with a concentration of 0.21 mg/ml. There were 6 mice in each group.
The main reagents used are as follows: 4% paraformaldehyde (Beijing Solarbio Technology Co., Ltd., China), isoflurane (Rayward, China), testosterone (Shanghai Standard Biotechnology Co., Ltd., China), paraffin sectioner (Thermo, USA), small animal anesthesia machine (Rayward, China), and inverted microscope (Olympus, Japan).
Modeling and drug administration: First, the androgenic alopecia model was established. One day before the modeling, the hair in the central part of the back of the experimental animal was removed with a skin preparation knife, and the prepared area was depilated with a depilatory cream. After 24 hours of depilation, the modeling agent (testosterone, 5.0 mg/mL) was subcutaneously injected into the neck of the mice in groups except the NC group, with a total dose of 0.2 mL/mouse. The mice in the NC group were injected with an equal amount of normal saline. After modeling, the mice were administrated with drugs. The NC group was injected with normal saline once a day, 0.15 mL/mouse each time. The experimental group A, experimental group B and positive control group were injected with modeling agent (testosterone), and administrated with drugs after 2 hours, and the dose of modeling agent was 0.2 mL/mouse. The experimental group A and experimental group B were injected on the back once a day, 0.15 mL/mouse each time. The positive control minoxidil group was applied 5% minoxidil externally, 0.01 mL/mouse, once a day. The positive control finasteride group was applied finasteride at a concentration of 13 μg/mL, 0.2 mL/mouse, once a day.

For assay [3], the system named is mice with androgenic alopecia. In words: Second experiment: testosterone hair loss model, hair growth, skin blackness, scanning electron microscopy and hair follicle count. To be noted: for hair growth on the back skin: 17th day, 0.15 mL/mouse once a day; for growth stage and quantity of back hair under dermoscope: end of experiment. Here is the method:
as §1, §2
Scanning electron microscopy observation: At the end of the experiment, hair shafts were randomly plucked from the newly formed hair area on the back of each group of mice. Three mice were selected from each group. The plucked hair shafts were fixed and the changes of hair shafts and hair cuticles were observed by scanning electron microscopy.
as §3

Setting [4] is: external application group, compared with the model group.

B1: CRT-2: fragment (1-349 aa) of recombinantly expressed CRT, amino acid sequence SEQ ID NO: 9 (protein)
chain: EPAVYFKEQFLDGDGWTSRWIESKHKSDFGKFVLSSGKFYGDEEKDKGLQTSQDARFYALSASFEPFSNKGQTLVVQFTVKHEQNIDCGGGYVKLFPNSLDQTDMHGDSEYNIMFGPDICGPGTKKVHVIFNYKGKNVLINKDIRCKDDEFTHLYTLIVRPDNTYEVKIDNSQVESGSLEDDWDFLPPKKIKDPDASKPEDWDERAKIDDPTDSKPEDWDKPEHIPDPDAKKPEDWDEEMDGEWEPPVIQNPEYKGEWKPRQIDNPDYKGTWIHPEIDNPEYSPDPSIYAYDNFGVLGLDLWQVKSGTIFDNFLITNDEAYAEEFGNETWGVTKAAEKQMKDKQDEEQR
For the molecule B1, the serum dihydrotestosterone entry in assay [1] (injection group, P<0.01) is “decreased significantly”; in assay [1] (topical (external application) group, P<0.05) it was “decreased significantly”. The skin tissue dihydrotestosterone result in assay [1] (injection group, P<0.01) was “decreased significantly”. For the same molecule, in assay [1] (injection group, P<0.05), the “testosterone level in skin tissue” value is recorded as “significantly decreased”. Further, the “testosterone level in the serum” value in assay [1] (injection group, P<0.05) was “significantly decreased”. Besides, the “changes in hair observed by dermatoscope” value in assay [2] (21 days, compared with the model group (frizzy hair), proteins 0.21 mg/ml injected on the back once a day, minoxidil 5% external, finasteride 13 μg/mL) is recorded as “smoother”. In assay [2] (21 days, proteins 0.21 mg/ml injected on the back once a day, minoxidil 5% external, finasteride 13 μg/mL, listed as experimental group B), the “hair cuticles observed by scanning electron microscopy” value is on record as “arranged neatly; also recorded: denser than those of group A”. Besides, the “hair shafts (scanning electron microscopy, FIG. 18 vs FIG. 19)” value in assay [2] (first experiment, comparison of experimental groups B and A) is reported as “thicker than those of experimental group A”. Besides, the “hair growth on the back skin” value is given as “promoted hair growth the most” in assay [3] (external application group) and “promoted hair growth” in assay [3] (injection group). In addition, the “blackness of the back skin (color tester)” value in assay [3] (Day 14, external application group, compared with the model group, P<0.05) was “significantly increased”; in assay [3] (Day 17, external application group, compared with the model group, P<0.01) it was “significantly increased”; in assay [3] (Day 17, injection group, compared with the model group, P<0.01) it was “significantly increased”. The “growth stage and quantity of back hair under dermoscope” value in assay [3] (setting [4]) was “increased number and became thicker”; in assay [3] (injection group, compared with the model group) it was “less and fine”. For the same molecule, the “hair cuticles under scanning electron microscopy” value in assay [3] (setting [4]) and in assay [3] (injection group) was “dense” throughout. For the same molecule, the “hair shafts under scanning electron microscopy” value in assay [3] (setting [4]) was “became significantly thicker”; in assay [3] (injection group), “thin”. Moreover, the “number of hair follicles (pathological section)” value was “most significant effect” in assay [3] (external application group, compared with the model group, P<0.01) and “significantly promoted” in assay [3] (injection group, compared with the model group, P<0.01).

(Values after patent US20250000944A1, “USE OF RECOMBINANT CALRETICULIN IN HAIR GROWTH, HAIR BREEDING, HAIR PROTECTION OR ANTI-HAIR LOSS AND RELATED PRODUCT” (BEIJING YITUBAIHUI BIOTECH CO., LTD, priority 2021, published 2025).)
